Measured values taken from paper PMC9491089.

Assays:
[1] = biological target: recombinant P. xylostella BJSP-1-GST fusion protein (basic juvenile hormone-suppressible protein 1-like) (P. xylostella); test: ELISA; plates coated with BJSP-1-GST (8 μg/well, 4°C overnight); increasing concentrations of Cry7Ab4 toxic core added; detected with anti-His antibody
[2] = biological target: recombinant His-tagged Cry7Ab4 toxic core (residues 1-637) (Bacillus thuringiensis); test: ELISA; plates coated with Cry7Ab4 toxic core (8 μg/well, 4°C overnight); increasing concentrations of BJSP-1-GST added; detected with anti-GST antibody

| Substance | concentration at which binding was saturated [1] [µg/mL] | concentration at which binding was saturated [2] [µg/mL] |
| --- | --- | --- |
| recombinant His-tagged Cry7Ab4 toxic core (residues 1-637) (domain or fragment) | 16 | – |
| recombinant P. xylostella BJSP-1-GST fusion protein (basic juvenile hormone-suppressible protein 1-like) (natural protein) | – | 64 |
